Laboratory results as given in patent publication US20220185901A1 (Bayer, published 2022).
One block for each binder: values may come before it.

Key:
Test in all cases: SPR, Biacore T200, antigen amine-coupled to the chip, antibody injected at 1.56-200 nM, 1:1 Langmuir fit, 25 C
[1] = target: T1, human ALK-1-Fc (TPP-11726) (human)
T1 construct: Used for panning, screening and SPR; also called hALK-1-Fc
Procedure: (§1) SPR experiments for quantitative binding analyses were performed using a Biacore T200 instrument (GE Healthcare Biacore, Inc.) equipped with Series S Sensor Chips CMS (GE Healthcare Biacore, Inc.). Binding assays were carried out at 25° C. with assay buffer HBS-EP+ (10 mM HEPES pH 7.4, 150 mM NaCl, 3 mM EDTA, 0.05% Surfactant P20). Antigens were covalently immobilized to the chip surface via amine coupling chemistry. The same proteins that had previously been used to isolate the antibodies of the invention during panning and screening [murine ALK-1-Fc SEQ ID NO: 114, human ALK-1-Fc SEQ ID NO: 116, as well as BMPR-2-Fc SEQ ID NO: 115 (human and murine extracellular are identical)] were used here as […] to determine KD values. Reagents for amine coupling (1-ethyl-3-(3-dimethylaminopropyl) carbodiimide hydrochloride (EDC), N-hydroxysuccinimide (NHS), ethanolamine-HCl pH 8.5) were used from the Amine Coupling Kit (GE Healthcare, product code BR-1000-50). The sensor chip surface was activated with a freshly prepared solution of 0.2 M EDC and 0.05 M NHS passed over the chip surface for 420 seconds at a flow rate of 10 μl/min, followed by an injection of antigen (dissolved to 0.5 μg/ml in immobilization buffer, 10 mM sodium acetate pH 5.0) with a target level of 50 RU. Excess of activated groups were blocked with a 1 molar solution of ethanolamine injected at a flow rate of 10 μl/min for 420 seconds.
(§2) The sensor surface was regenerated for 20 seconds with regeneration solution (glycine-HCl pH 1.5) after each assay cycle consisting of a single analyte injection.
(§3) Obtained sensorgrams were double-referenced, (reference cell correction followed by buffer sample subtraction). KD values were calculated based on the ratio of dissociation (kd) and association (kₐ) rate constants which were obtained by globally fitting sensorgrams with a first order 1:1 Langmuir binding model, implemented in the Biacore Evaluation Software Package (Biacore T200 Evaluation Software Version 2.0, GE Healthcare Biacore, Inc.).

[2] = target: T2, murine ALK-1-Fc (TPP-11724) (murine)
T2 construct: also called mouse ALK-1
T2 sequence (chain, as listed by the source limits assumed): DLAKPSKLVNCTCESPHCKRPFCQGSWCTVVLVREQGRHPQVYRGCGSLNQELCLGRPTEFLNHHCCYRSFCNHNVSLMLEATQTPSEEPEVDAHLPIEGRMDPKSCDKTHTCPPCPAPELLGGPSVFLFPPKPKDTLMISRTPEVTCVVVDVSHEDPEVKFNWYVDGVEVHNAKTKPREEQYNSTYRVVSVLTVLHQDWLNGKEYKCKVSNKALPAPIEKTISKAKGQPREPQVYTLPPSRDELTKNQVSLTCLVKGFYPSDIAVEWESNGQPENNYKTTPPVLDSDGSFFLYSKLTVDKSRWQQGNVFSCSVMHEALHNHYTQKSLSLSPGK
Procedure: as §1, §2, §3

[3] = target: T3, BMPR-2-FcHis6 (TPP-11725) (human)
T3 construct: also called human BMPR-2
T3 sequence (chain, as listed by the source limits assumed): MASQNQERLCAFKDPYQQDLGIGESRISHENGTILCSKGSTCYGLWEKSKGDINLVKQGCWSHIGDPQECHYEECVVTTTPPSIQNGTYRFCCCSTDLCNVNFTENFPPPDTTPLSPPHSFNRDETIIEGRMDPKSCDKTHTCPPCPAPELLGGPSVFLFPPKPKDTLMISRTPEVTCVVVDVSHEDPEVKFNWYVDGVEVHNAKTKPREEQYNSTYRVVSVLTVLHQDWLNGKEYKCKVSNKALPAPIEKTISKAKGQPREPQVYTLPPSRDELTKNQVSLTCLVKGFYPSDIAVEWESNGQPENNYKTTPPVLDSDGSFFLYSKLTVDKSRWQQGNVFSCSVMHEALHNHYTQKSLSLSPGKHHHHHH
Procedure: as §1, §2, §3

T1 sequence (chain, as listed by the source limits assumed): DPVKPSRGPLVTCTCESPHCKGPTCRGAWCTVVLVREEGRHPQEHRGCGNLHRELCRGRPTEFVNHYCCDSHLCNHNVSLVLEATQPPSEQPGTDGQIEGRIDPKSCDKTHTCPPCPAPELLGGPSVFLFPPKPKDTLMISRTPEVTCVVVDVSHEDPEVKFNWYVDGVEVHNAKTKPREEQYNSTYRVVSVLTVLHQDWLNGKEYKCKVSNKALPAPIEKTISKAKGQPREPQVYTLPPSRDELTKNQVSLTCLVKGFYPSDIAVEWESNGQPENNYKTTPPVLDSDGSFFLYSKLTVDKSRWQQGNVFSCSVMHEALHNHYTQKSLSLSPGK

B1: TPP-13654 (484A-M233-M07-scFv-Fc-hIgG2) (Fc fusion)
chain: EVQLLESGGGLVQPGGSLRLSCAASGFTFSIYAMSWVRQAPGKGLEWVSAISGSGGSTYYADSVKGRFTISRDNSKNTLYLQMNSLRAEDTAVYYCARDFDYWGQGTLVTVTSSGGGGSGGGGSGGGGSQSVLTQPPSASGTPGQRVTISCSGSSSNIGSNYVYWYQQLPGTAPKLLIYGNINRPSGVPDRFSGSKSGTSASLAISGLRSEDEADYYCAAWDDSLNGRVFGGGTKLTVLGGGGSGGGGSGGGGSGVECPPCPAPPVAGPSVFLFPPKPKDTLMISRTPEVTCVVVDVSHEDPEVQFNWYVDGVEVHNAKTKPREEQFNSTFRVVSVLTVVHQDWLNGKEYKCKVSNKGLPAPIEKTISKTKGQPREPQVYTLPPSREEMTKNQVSLTCLVKGFYPSDIAVEWESNGQPENNYKTTPPMLDSDGSFFLYSKLTVDKSRWQQGNVFSCSVMHEALHNHYTQKSLSLSPG
notes: Monospecific antibody (MsAB) against ALK-1; the construct name says scFv-Fc-hIgG2; not shown: human IgG2 Fc (and any linker), implied by the construct name scFv-Fc-hIgG2
- Kd [1]: 8.6 nM
- Kd [2]: 25 nM

B2: TPP-13469 (484A-M010-C06-scFv-Fc-hIgG2) (Fc fusion)
chain: EVQLLESGGGLVQPGGSLRLSCAASGFTFSDYYMTWIRQAPGKGLEWVSSISGGSTYYADSRKGRFTISRDNSENTLYLQMNSLRAEDTAVYYCARDFGVAGWFGQYGMDVWGQGTLVTVSSGGGGSGGGGSGGGGSQSVLTQPPSASGTPGQRVTISCTGSSSNIGAGYDVHWYQQLPGTAPKLLIYRSNQRPSGVPDRFSGSKSGTSASLAISGLRSEDEADYYCSSYAGNYNLVFGGGTKLTVLGGGGSGGGGSGGGGSGVECPPCPAPPVAGPSVFLFPPKPKDTLMISRTPEVTCVVVDVSHEDPEVQFNWYVDGVEVHNAKTKPREEQFNSTFRVVSVLTVVHQDWLNGKEYKCKVSNKGLPAPIEKTISKTKGQPREPQVYTLPPSREEMTKNQVSLTCLVKGFYPSDIAVEWESNGQPENNYKTTPPMLDSDGSFFLYSKLTVDKSRWQQGNVFSCSVMHEALHNHYTQKSLSLSPG
notes: Monospecific antibody (MsAB) against BMPR-2; the construct name says scFv-Fc-hIgG2; not shown: human IgG2 Fc (and any linker), implied by the construct name scFv-Fc-hIgG2
- Kd [3]: 6.2 nM

Continued, values first:

- Kd [1]: 8.5 nM
- Kd [2]: 25 nM
B3: TPP-13660 (484A-M232-A14-scFv-Fc-hIgG2) (Fc fusion)
chain: EVQLLESGGGLVQPGGSLRLSCAASGFTFSSYAMSWVRQAPGKGLEWVANINQDGSEKNYVDSMRGRFTISRDNSKNTLYLQMNSLRAEDTAVYYCAREFDYWGQGTLVTVTSSGGGGSGGGGSGGGGSQSVLAQPPSASGTPGQRVTISCSGSSSNIGSNYVYWYQQLPGTAPKLLIYGNNKRPSGVPDRFSGSKSGTSASLAISGLRSEDEADYYCAAWDDSLNGRVFGGGTKLTVLGGGGSGGGGSGGGGSGVECPPCPAPPVAGPSVFLFPPKPKDTLMISRTPEVTCVVVDVSHEDPEVQFNWYVDGVEVHNAKTKPREEQFNSTFRVVSVLTVVHQDWLNGKEYKCKVSNKGLPAPIEKTISKTKGQPREPQVYTLPPSREEMTKNQVSLTCLVKGFYPSDIAVEWESNGQPENNYKTTPPMLDSDGSFFLYSKLTVDKSRWQQGNVFSCSVMHEALHNHYTQKSLSLSPG
notes: as for B1

- Kd [3]: 8.8 nM
B4: TPP-13667 (484A-M198-J22-scFv-Fc-hIgG2) (Fc fusion)
chain: EVQLLESGGGLVQPGGSLRLSCAASGFTFSNAWMNWVRQAPGKGLEWVSSISSSSSYIYYADSVKGRFTISRDNSKNTLYLQMNSLRAEDTAVYYCARAVAAGGMFWGLDQWGQGTLVTVTSSGGGGSGGGGSGGGGSQSVLTQPPSASGTPGQRVTISCSGSRSNIGSNSVHWYQQLPGTAPKLLIYGNSNRPSGVPDRFSGSKSGTSASLAISGLRSEDEADYYCQSYDSSLNDHVVFGGGTKLTVLGGGGSGGGGSGGGGSGVECPPCPAPPVAGPSVFLFPPKPKDTLMISRTPEVTCVVVDVSHEDPEVQFNWYVDGVEVHNAKTKPREEQFNSTFRVVSVLTVVHQDWLNGKEYKCKVSNKGLPAPIEKTISKTKGQPREPQVYTLPPSREEMTKNQVSLTCLVKGFYPSDIAVEWESNGQPENNYKTTPPMLDSDGSFFLYSKLTVDKSRWQQGNVFSCSVMHEALHNHYTQKSLSLSPG
notes: Monospecific antibody (MsAB) against BMPR-2; the first row says hIgG2; not shown: human IgG2 Fc (and any linker), implied by the construct name scFv-Fc-hIgG2
